B1: full-length human vinculin autoinhibition-disruption mutant VK3E (natural protein, UniProt P18206-2 1-1066, looked up)
chain: MPVFHTRTIESILEPVAQQISHLVIMHEEGEVDGKAIPDLTAPVAAVQAAVSNLVRVGKETVQTTEDQILKRDMPPAFIKVENACTKLVQAAQMLQSDPYSVPARDYLIDGSRGILSGTSDLLLTFDEAEVRKIIRVCKGILEYLTVAEVVETMEDLVTYTKNLGPGMTKMAKMIDERQQELTHQEHRVMLVNSMNTVKELLPVLISAMKIFVTTKNSKNQGIEEALKNRNFTVEKMSAEINEIIRVLQLTSWDEDAWASKDTEAMKRALASIDSKLNQAKGWLRDPSASPGDAGEQAIRQILDEAGKVGELCAGKERREILGTCKMLGQMTDQVADLRARGQGSSPVAMQKAQQVSQGLDVLTAKVENAARKLEAMTNSKQSIAKKIDAAQNWLADPNGGPEGEEQIRGALAEARKIAELCDDPKERDDILRSLGEISALTSKLADLRRQGKGDSPEARALAKQVATALQNLQTKTNRAVANSRPAKAAVHLEGKIEQAQRWIDNPTVDDRGVGQAAIRGLVAEGHRLANVMMGPYRQDLLAKCDRVDQLTAQLADLAARGEGESPQARALASQLQDSLKDLKARMQEAMTQEVSDVFSDTTTPIKLLAVAATAPPDAPNREEVFDERAANFENHSGKLGATAEKAAAVGTANKSTVEGIQASVKTARELTPQVVSAARILLRNPGNQAAYEHFETMKNQWIDNVEKMTGLVDEAIDTKSLLDASEEAIKKDLDKCKVAMANIQPQMLVAGATSIARRANRILLVAKREVENSEDPKFREAVKAASDELSKTISPMVMDAKAVAGNISDPGLQKSFLDSGYRILGAVAKVREAFQPQEPDFPPPPPDLEQLRLTDELAPPKPPLPEGEVPPPRPPPPEEKDEEFPEQKAGEVINQPMMMAARQLHDEARKWSSKGNDIIAAAKRMALLMAEMSRLVRGGSGTEEALIQCAKDIAKASDEVTRLAKEVAKQCTDKRIRTNLLQVCERIPTISTQLEILSTVKATMLGRTNISDEESEQATEMLVHNAQNLMQSVKETVREAEAASIKIRTDAGFTLRWVRKTPWYQ
B2: human β-catenin (natural protein, UniProt P35222 1-781, looked up)
chain: MATQADLMELDMAMEPDRKAAVSHWQQQSYLDSGIHSGATTTAPSLSGKGNPEEEDVDTSQVLYEWEQGFSQSFTQEQVADIDGQYAMTRAQRVRAAMFPETLDEGMQIPSTQFDAAHPTNVQRLAEPSQMLKHAVVNLINYQDDAELATRAIPELTKLLNDEDQVVVNKAAVMVHQLSKKEASRHAIMRSPQMVSAIVRTMQNTNDVETARCTAGTLHNLSHHREGLLAIFKSGGIPALVKMLGSPVDSVLFYAITTLHNLLLHQEGAKMAVRLAGGLQKMVALLNKTNVKFLAITTDCLQILAYGNQESKLIILASGGPQALVNIMRTYTYEKLLWTTSRVLKVLSVCSSNKPAIVEAGGMQALGLHLTDPSQRLVQNCLWTLRNLSDAATKQEGMEGLLGTLVQLLGSDDINVVTCAAGILSNLTCNNYKNKMMVCQVGGIEALVRTVLRAGDREDITEPAICALRHLTSRHQEAEMAQNAVRLHYGLPVVVKLLHPPSHWPLIKATVGLIRNLALCPANHAPLREQGAIPRLVQLLVRAHQDTQRRTSMGGTQQQFVEGVRMEEIVEGCTGALHILARDVHNRIVIRGLNTIPLFVQLLYSPIENIQRVAAGVLCELAQDKEAAEAIEAEGATAPLTELLHSRNEGVATYAAAVLFRMSEDKPQDYKKRLSVELTSSLFRTEPMAWNETADLGLDIGAQGEPLGYRQDDPSYRSFHSGGYGQDALGMDPMMEHEMGGHHPGADYPVDGLPDLGHAQDLMDGLPPGDSNQLAWFDTDL
B3: cytoplasmic domain of human E-cadherin (EcadCT, residues 731 to 882) (domain or fragment)
chain: not shown
B4: full-length human αE-catenin (natural protein, UniProt P35221 1-906, looked up)
chain: MTAVHAGNINFKWDPKSLEIRTLAVERLLEPLVTQVTTLVNTNSKGPSNKKRGRSKKAHVLAASVEQATENFLEKGDKIAKESQFLKEELVAAVEDVRKQGDLMKAAAGEFADDPCSSVKRGNMVRAARALLSAVTRLLILADMADVYKLLVQLKVVEDGILKLRNAGNEQDLGIQYKALKPEVDKLNIMAAKRQQELKDVGHRDQMAAARGILQKNVPILYTASQACLQHPDVAAYKANRDLIYKQLQQAVTGISNAAQATASDDASQHQGGGGGELAYALNNFDKQIIVDPLSFSEERFRPSLEERLESIISGAALMADSSCTRDDRRERIVAECNAVRQALQDLLSEYMGNAGRKERSDALNSAIDKMTKKTRDLRRQLRKAVMDHVSDSFLETNVPLLVLIEAAKNGNEKEVKEYAQVFREHANKLIEVANLACSISNNEEGVKLVRMSASQLEALCPQVINAALALAAKPQSKLAQENMDLFKEQWEKQVRVLTDAVDDITSIDDFLAVSENHILEDVNKCVIALQEKDVDGLDRTAGAIRGRAARVIHVVTSEMDNYEPGVYTEKVLEATKLLSNTVMPRFTEQVEAAVEALSSDPAQPMDENEFIDASRLVYDGIRDIRKAVLMIRTPEELDDSDFETEDFDVRSRTSVQTEDDQLIAGQSARAIMAQLPQEQKAKIAEQVASFQEEKSKLDAEVSKWDDSGNDIIVLAKQMCMIMMEMTDFTRGKGPLKNTSDVISAAKKIAEAGSRMDKLGRTIADHCPDSACKQDLLAYLQRIALYCHQLNICSKVKAEVQNLGGELVVSGVDSAMSLIQAAKNLMNAVVQTVKASYVASTKYQKSQGMASLNLPAVSWKMKAPEKKPLVKREKQDETQTKIKRASQKKHVNPVQALSEFKAMDSI

Experiments:
Experiment in all cases: reconstitution of the complex from purified proteins
[1] = target: α-catenin–β-catenin–E-cadherin cytoplasmic tail complex (ABE complex) (human, UniProt P35221 1-906; P35222 1-781; P12830 731-882)
Sequence of α-catenin–β-catenin–E-cadherin cytoplasmic tail complex (ABE complex) (P12830 731-882, one chain of several): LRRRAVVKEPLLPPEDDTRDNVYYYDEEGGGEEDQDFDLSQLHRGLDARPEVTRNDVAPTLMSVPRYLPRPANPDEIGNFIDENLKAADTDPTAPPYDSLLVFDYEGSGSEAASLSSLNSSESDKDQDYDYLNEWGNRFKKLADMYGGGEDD

[2] = target: B4
[3] = target: B2
[4] = target: B1

Binder: B1
binding result [1]: binds

Binder: B2
binding result [2]: binds

Binder: B3
binding result [3]: binds

Binder: B4
binding result [4]: binds
